What was measured:
[1] = biological target: ARVCF peptide PQPVDSWV-COOH (eight-residue motif corresponding to the ARVCF C-terminus); experiment: SPR (BIAcore)
[2] = biological target: δ-catenin peptide PASPDSWV-COOH; experiment: SPR (BIAcore)
[3] = biological target: eSH2-6 (human) (UniProt P62993); experiment: panel C, competition phage ELISA: eSH2-6 phages incubated with free pY1139 peptide (0 to 50 nM), phages not bound to the free peptide captured and detected
[4] = biological target: eSH2-3 (human) (UniProt P62993); experiment: competition phage ELISA: eSH2-3 phage pre-incubated with free pY1139 peptide, unbound phage captured
[5] = biological target: eSH2-6 (human) (UniProt P62993); experiment: competition phage ELISA: eSH2-6 phage pre-incubated with free pY1139 peptide, unbound phage captured
[6] = biological target: SH2 domain of human Grb2 (human) (UniProt P62993); experiment: panel D, competition phage ELISA: wtSH2 (Grb2-SH2) phages incubated with free pY1139 peptide (0 to about 2200 nM), phages not bound to the free peptide captured and detected
[7] = biological target: eSH2-3 (human) (UniProt P62993); experiment: panel B, competition phage ELISA: eSH2-3 phages incubated with free pY1139 peptide (0 to 50 nM), phages not bound to the free peptide captured and detected

SH2 domain of human Grb2 (human), sequence (P62993 56-153 limits assumed): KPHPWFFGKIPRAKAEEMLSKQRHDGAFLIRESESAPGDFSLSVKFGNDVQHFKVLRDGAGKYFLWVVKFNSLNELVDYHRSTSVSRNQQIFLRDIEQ

Row | Kd [1] | Kd [2] | IC50 [3] | IC50 [4] | IC50 [5] | IC50 [6] | IC50 [7] | Substance
1 | 10 µM | 10 µM | – | – | – | – | – | PDZ domain of Erbin (wild-type) (from UniProt Q96RT1 1314-1412)
2 | – | – | 0.09 nM | 90 µM | 90 µM | 0.07 µM | 0.09 nM | pY-containing peptide corresponding to residues 1130-1146 of ErbB2 (HER2) pY1139

— patent publication US20110143963A1
